In general, Kd refers to the constant that tells how readily two partners part at equilibrium. Higher therefore signals a looser complex.

Data on 1 molecule can be found in PMC8257661.

This assay has as its target JUNV L protein VNN(1177–1179)AAA (Junin virus (JUNV)). Description: MST.

B1: Junin virus (JUNV) Z protein (natural protein)
chain: MGNCNGASKSNQPDSSRVTQPAAEFRRVAHSSLYGRYNCKCCWFADTNLITCNDHYLCLRCHQVMLRNSDLCNICWKPLPTTITVPVEPTAPPP
In turn, B1 registered a Kd of 914 nM.
